From patent publication US20210403583A1 (ELIXIRON IMMUNOTHERAPEUTICS HONG KONG, published 2021)

T1: recombinant human IL-10Ra fusion protein (R&D Systems) (human, UniProt Q13651 22-235)
T1 sequence (looked up): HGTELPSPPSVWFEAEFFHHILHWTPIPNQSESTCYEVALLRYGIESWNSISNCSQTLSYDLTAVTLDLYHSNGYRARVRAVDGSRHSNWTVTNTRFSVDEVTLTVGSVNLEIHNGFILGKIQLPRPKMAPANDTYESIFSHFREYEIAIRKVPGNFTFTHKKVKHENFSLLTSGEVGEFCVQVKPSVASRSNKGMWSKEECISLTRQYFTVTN

T2: cynomolgus CSF1R expressed on 293F cells (cynomolgus monkey, UniProt P07333 20-972 (human entry))
T2 construct: also called cynoCSF1R
T2 chain: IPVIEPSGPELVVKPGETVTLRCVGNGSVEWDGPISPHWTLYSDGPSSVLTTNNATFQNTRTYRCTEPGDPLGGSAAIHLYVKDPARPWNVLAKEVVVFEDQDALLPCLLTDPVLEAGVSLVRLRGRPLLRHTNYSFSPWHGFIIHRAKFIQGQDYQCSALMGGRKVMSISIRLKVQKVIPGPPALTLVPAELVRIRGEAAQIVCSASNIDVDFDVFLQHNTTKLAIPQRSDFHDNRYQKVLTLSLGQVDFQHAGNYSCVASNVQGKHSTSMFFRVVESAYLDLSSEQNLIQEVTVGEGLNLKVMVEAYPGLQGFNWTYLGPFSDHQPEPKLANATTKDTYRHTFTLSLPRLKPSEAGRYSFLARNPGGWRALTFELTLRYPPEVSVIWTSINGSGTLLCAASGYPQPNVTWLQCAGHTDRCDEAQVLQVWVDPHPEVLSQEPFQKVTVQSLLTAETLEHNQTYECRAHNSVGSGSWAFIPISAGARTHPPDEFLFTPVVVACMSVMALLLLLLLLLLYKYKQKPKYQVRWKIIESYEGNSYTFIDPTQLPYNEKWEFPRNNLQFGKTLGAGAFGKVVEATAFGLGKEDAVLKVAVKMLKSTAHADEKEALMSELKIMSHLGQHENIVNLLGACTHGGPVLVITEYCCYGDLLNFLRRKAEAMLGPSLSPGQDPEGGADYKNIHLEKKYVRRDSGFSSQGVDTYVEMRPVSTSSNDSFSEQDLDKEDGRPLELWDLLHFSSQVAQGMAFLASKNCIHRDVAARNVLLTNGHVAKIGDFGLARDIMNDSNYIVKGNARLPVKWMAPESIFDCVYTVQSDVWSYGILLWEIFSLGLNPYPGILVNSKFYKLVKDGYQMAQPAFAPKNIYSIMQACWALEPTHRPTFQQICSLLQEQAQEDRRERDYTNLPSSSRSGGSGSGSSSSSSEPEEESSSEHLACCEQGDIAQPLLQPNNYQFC


Legend:
[1] = target: human CSF1R expressed on cells (293F/huCSF1R stable cells; AML5 cells; human monocytes and macrophages) (human, UniProt P07333 20-972); experiment: cell-based or functional assay
[2] = target: T3, recombinant human CSF1R-Fc fusion protein (human, UniProt P07333 20-512); experiment: ELISA, coated human CSF1R-Fc
T3 construct: probably the same protein; also called CSF1R-Fc (dimer); not shown: Fc part
Method: Materials and methods: Recombinant human CSF1R-Fc, or mouse CSF1R-Fc (Sino Biological) were immobilized on 96 well microtiter plate at a concentration of 1 μg/mL in Coating Solution (SeraCare) overnight at 4° C. The wells were washed with wash solution (0.05% Tween20 in imidazole-buffered saline) and blocked with 1% BSA. Serial dilutions of the anti-CSF1R/IL-10 fusion proteins were added to wells. After incubation at 3TC for 1 h, the wells were washed with wash solution. To detect chimeric Ab/IL10 fusions, peroxidase-conjugated goat anti-human kappa light chain antibody (Bethyl) was applied to each well at 3TC for 1 h incubation. To detect AB98 or AB98/1110 fusions, peroxidase-conjugated Goat anti-mouse IgG Fab antibody (Jackson immunoresearch) was applied to each well at 3TC for 1 h incubation. After washing, the wells were developed with TMB substrate for 5-10 min at RT and then stopped with 1 N HCl. Thereafter absorbance was measured at 450 nm and 650 nm.

[3] = target: T1, recombinant human IL-10Ra fusion …; experiment: ELISA, coated human IL-10Ra fusion protein
Method: Materials and methods: Recombinant human IL-10Ra fusion protein (R&D Systems) were immobilized on 96 well microtiter plate at a concentration of 1 μg/ml in Coating Solution (SeraCare) overnight at 4° C. The wells were washed with wash solution (0.05% Tween20 in imidazole-buffered saline) and blocked with 1% BSA. Serial dilutions of Ab/IL-10 fusion proteins were added to wells. After incubation at 37° C. for lhr, the wells were washed with wash solution. Peroxidase-conjugated goat anti-human kappa light chain antibody (Bethyl) was applied to each well at 37° C. for 1 hr incubation. After washing, the wells were developed with TMB substrate for 5-10 min at RT and then stopped with 1 N HCl. Thereafter absorbance was measured at 450 nm and 650 nm. The EC50 value was calculated through GraphPad Prism7.

[4] = target: T3, recombinant human CSF1R-Fc fusion …; experiment: competition ELISA, coated human CSF1R-Fc, competitor biotinylated human CSF1-His 2.5 ug/mL
Method: Materials and methods: Recombinant human CSF1R-Fc or mouse CSF1R-Fc (Sino Biological) fusion protein was immobilized on 96 well microtiter plate at a concentration of 1 μg/mL in Coating Solution (SeraCare) overnight at 4° C. The wells were washed with wash solution and blocked with 1% BSA at RT. Serial dilutions of Ab/IL-10 fusion proteins were added to wells. Then 2.5 ug/mL biotinylated human CSF1-His (Biolegend) or mouse CSF1-His (Sino Biological) was added and incubated for 1 h at 37° C. After washing, Streptavidin-HRP (Jackson ImmunoResearch) was applied to wells at RT for 1 h incubation. After washing, the wells were developed with TMB substrate for 5-10 min at RT and the stopped with 1 N HCl. Thereafter absorbance was measured at 450 nm and 650 nm. The IC₅₀ values were calculated through GraphPad Prism7.

[5] = target: T2, cynomolgus CSF1R expressed on 293F cells; experiment: flow cytometry titration on 293F cells overexpressing cynomolgus CSF1R, anti-human IgG-Alexa Fluor 647
Source text: Materials and methods: The gene segments encoding full-length human CSF1R or cynomolgus CSF1R were obtained using Thermo gene synthesis service and cloned in a mammalian expression vector pCDNA3.4. […] After washing with FACS buffer (2%FBS in PBS), the cells were stained with anti-human IgG-Alexa Fluor 647 and analyzed by Attune N×T Flow Cytometer (Thermo Scientific).

T3 sequence (P07333 20-512 limits assumed): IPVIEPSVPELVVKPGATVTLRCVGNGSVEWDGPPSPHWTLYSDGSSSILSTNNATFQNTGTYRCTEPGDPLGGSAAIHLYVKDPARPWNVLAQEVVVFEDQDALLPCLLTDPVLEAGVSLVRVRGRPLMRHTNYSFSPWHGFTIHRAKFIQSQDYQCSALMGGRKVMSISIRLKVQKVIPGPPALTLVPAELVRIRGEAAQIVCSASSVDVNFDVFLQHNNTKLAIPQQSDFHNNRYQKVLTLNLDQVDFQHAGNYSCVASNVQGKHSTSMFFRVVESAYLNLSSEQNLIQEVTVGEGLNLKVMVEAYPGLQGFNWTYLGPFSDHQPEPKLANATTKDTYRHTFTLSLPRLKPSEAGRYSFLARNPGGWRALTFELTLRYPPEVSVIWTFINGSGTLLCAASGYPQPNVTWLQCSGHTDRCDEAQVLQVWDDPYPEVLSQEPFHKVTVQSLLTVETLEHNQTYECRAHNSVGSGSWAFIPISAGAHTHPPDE

IC50 (M), inhibition of AML5 cell proliferation (CSF1-dependent) [1] [M]	EC50 [2] [nM]	EC50 [3] [nM]	IC50 [4] [nM]	binding result [5]	Binder
4.92e-09	0.479	2.76	1.4	binds	chimeric anti-CSF1R/IL10 fusion protein 6D4/IL10 (antibody, human IgG1, kappa, Antibody-cytokine fusion: human IL10 fused by a linker to the C-terminus of the heavy chain) heavy: not shown light: DIQMNQSPSSLSASLGDTITITCHASQNINVWLSWYQQKPGNIPKLLIYKASNLHTGVPSRFSGSGSGTGFTLTISSLQPEDIATYYCQQGQSYPYTFGGGTKLEIKRTVAAPSVFIFPPSDEQLKSGTASVVCLLNNFYPREAKVQWKVDNALQSGNSQESVTEQDSKDSTYSLSSTLTLSKADYEKHKVYACEVTHQGLSSPVTKSFNRGEC
–	0.393	6.08	–	–	chimeric anti-CSF1R/IL10 fusion protein 6D4/(IL10)2 (antibody, human IgG1, kappa, Antibody-cytokine fusion: two human IL10 in tandem fused by linkers to the C-terminus of the heavy chain) heavy: not shown light: DIQMNQSPSSLSASLGDTITITCHASQNINVWLSWYQQKPGNIPKLLIYKASNLHTGVPSRFSGSGSGTGFTLTISSLQPEDIATYYCQQGQSYPYTFGGGTKLEIKRTVAAPSVFIFPPSDEQLKSGTASVVCLLNNFYPREAKVQWKVDNALQSGNSQESVTEQDSKDSTYSLSSTLTLSKADYEKHKVYACEVTHQGLSSPVTKSFNRGEC
